From the nanobody polyreactivity screen of Harvey et al. (2022)

Test: yeast display, Sf9 membrane polyspecificity reagent, FACS + sequencing; frameworks hold sequencing errors
How it was run: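 A nanobody's polyreactivity label depends on the gate it was sorted from. Yeast display cells were stained with 10% biotinylated, detergent-solubilized Sf9 membrane reagent for 1 hour at 4 °C, enriched on streptavidin microbeads and sorted by FACS. The low and high (top ~1%) gates were set on anti-HA fluorescence for expression and streptavidin fluorescence for reagent binding.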

Row | Sequence | polyreactivity (PSR sort gate)
1 | QVQLVESGGGLVQAGGSLRLTCAASGITFKYYAMGWYRQAPGKERELVAAIRGSGGGTNYADSVKGRFTISRDNAMNTVYLQMNSLKQEDSAVYYCAAANWRRNDYRYRFDYWGQGTQVTVSS | high polyreactivity
2 | QVQLVESGGGLVQAGGSLRLSCAASGRTFVSNAMGWYRQAPGKERELVATITVSSDSTYYADSVKGRFTISRDNAKNTVYLQMNSLKPEDTAVYYCAARNPTWSFQFDYWGQGTQVTVSS | low polyreactivity
3 | QVHLVESGGGLVQAGGSLRLSCAASGRTYDYYAMGWYRQAHGKERELVAAIRLISGNTYYADSVKGRFTISRDNAKNTVYLQMNSLKPEDTAVYYCARQGYVLYYYWGQGTQVTVSS | low polyreactivity
4 | QVQLVESGGGLFQAGGSLRLSCAASGITFKGYTMGWYRQAPGKERELVATISRGGRTYADSVKGRFTISRDNAKNTVLLQMNSLKPEDTAVYYCAADKYWAQNDYWGQGTQVTVSS | low polyreactivity
5 | QVQLVESGGGLVQAGGSLRLTCAASGLFYAMGWYRQAPGKQRELVAAISSVGSTNYADSVKGRFTISRDNAKNTVYLQMNSLKPEDTAVYYCAAYFYTYPVDRYGSYYWGQGTQLTVSS | low polyreactivity
6 | HVQLVESGGGLVQAGGSLRLICAASVRIFADNAMGWYRQAPGKERELSAAISESGGSTYYADSVKGRFTISRDNAKNTVYLEMNSLKPEDTAVYYCAATAEVHRAEPYDYWGQGTQVTVSS | low polyreactivity
7 | QVQLVESGGCLVQAGGSLRLSCAASGSTFTSNAMGWYRQAAGKEWQFVAAISFGGGITYDADSVKGRFTISRDNAKNTVSLQMNSLKPEDTAVYYCAADGEYPHSEDFEYWGQGTQGTVSS | low polyreactivity
8 | QVQLVESGGGLVQAGGSLRLSCAASGLTFYGNAMGWYRQAPGKERELVAAISSSGGTTYYADSVKGRFTISRDNAKNTVYLQMNSLKPEDTAVYYCAARPSGGYESTRTRDYWGQGTQVTVSS | low polyreactivity
9 | QVQLEESGGGLVQAGGSLRLSCAASGFTFTTNAMGWYRQAPGKERELVAAISFSGGTTYYADSVKGRFTISRDNAKNTVYLQMNSLKPEDTAVYYCAAQPGQAWWSTDHDDYWGQGTQVSVSS | low polyreactivity
10 | QVQLVESGGGLVQAGGSLRLSCAASRSIFSIYAMGWYRQAPGKERELVAAITWGGGSTYYADSVKGRFTISRDNAKNTVYLQMNSLKPEDTALYYCAADSLTWYGTYYYWGQGTQVTVSS | high polyreactivity
11 | QVQLEESGGGLVQAGGSLRLSCAASGSTFNDYAMGRYRQAPGKERELVAAISSSGGITYYADSVKGRFTISRDNAKNTVYLQMNSLKPEDTEVYYCAASGRDWSWYDYWGQGTQVTVSS | low polyreactivity
12 | QVQLVESGGGLVQAGGSLRLSCAASGSIFVKNAMGWYRQAPGKERELVAVITIRTATTYYADSVKGRFTISRDNAKNTVYLQMNSLKPEVTAVYYCAAAKRQRGYLQREGNYWGQGTQVTVSS | low polyreactivity
13 | QVQLVESGGGLVQAGGSLRLSCAASGRIFSYYDMGWYRQAPGKERELVARISYSGDSTYYADSVKGRFTISRDNAKNTVYLQMNSLKPEDTAVYYCADEVDSGYSEYYWGQGTQVTVSS | low polyreactivity
14 | QVQLEDSGGGLVQAGGSLRLICAASGSILNYKAMGWYRHAPGKERELVAGIRSSGGSTYYADSVKGRFTISRDNAKNTVYLKMNSLKPEDTAVYDWAKRTYWRRGWGFDFWGQGTQVTVSS | high polyreactivity
15 | QVQLVESGGGLVQAGGSLRLSCAASGRTFRGNAMGWYRQAPGKERELVAVITSGDSTYYADSVKGRFTISRDNAKNTVYLQMNSLKPEDTAVYYCATKSRFSRGKAYYYWGQGTQVTVSS | high polyreactivity
16 | QVQLVESGGGLVQAGGSLRLSCAASGSIIVRYAMGWYRQAPGKERELVATITFRDTSTYYADSVKGRFTISRDNAKNTVYLQMNRLIPEDTAVYYCAAVRADLWDIARYDYWGQGTQVTVSS | low polyreactivity

Row | Sequence | polyreactivity (PSR sort gate)
17 | QVQLVESGGGLVQAGGSLRLSCAASGFIFVRNAMGWYRQAPGKERELVAAITGRGGRTYYADSVKGRFTISRDNAKNTVYLQMNSLKPEDTAVYYCAKDSPDDHFGYWGQGTQVTVSS | high polyreactivity
18 | QVQLVESGGGLVQAGGSLRLSCAASGYTFEAYAMGWYRQAPGKERELVAAINYSGGSTYADSVKGRFTISRDNAKNTVYLQMNSLKPEDTAVYYCAAYGTKRYPYDYWGQGTQVTVSS | low polyreactivity
19 | QVQLVESGGGLVQAGGSLRLSCAASGSISWAYVMGWYRQAPGKERELVAAISSGTSTYYADSVKGRFTLSRDNAKKTVYLQMNSLKPEDTAVYYCAAYYYSYPTNGGYGYWGQGTQVTVSS | low polyreactivity
20 | QVQLVESGGGLVQAGGSLRLSCAASGITFVPYAMGWYRQAPGKEREFVARITWSGGGTYYADSVKGRFTISRDNAKNTVYLQMNSLKPEDTAVYYSNKASLPTYYYVDGSDSWGQGTQVTVSS | low polyreactivity
21 | QVQLVESGGGLVQAGGSLRLSCAASGITFYDYAMGWYRQAPGKERELVAVITRRGGSTYYADSVKGRFTISRDNAKNTVYIQMNSLKPEDTAVYYCAADWRVWSFVRGVDYWGQGTQVTVSS | high polyreactivity
22 | QDQLVESGGGLVQAGGSLRLSCAASGRIFIVYAMGWYRQAPGKERELDAAISRNGGRTYYADSVKGRFTISRDNAKNSVDLQMNSLKPEDTSVYYCNSVALYPYTTYDYWGQGSQVTVSS | high polyreactivity
23 | QVQLVESGGGLVQAGGSLRLSCAASGIIFGLNAMGWYRQAPGKERELVAAIRRRGGSTYYADSVKGRYTISRDNAKTTVYLQMNSLKPEDTAVYYCAAAGGRYSRAAYDYWGQGTQVTVSS | low polyreactivity
24 | QVQLVESGGGLVQAGGSLRLSWAASGFTFPAYPMGWYRQAPGKERELVASISSSGRTNYADSEKGRFTISRDNAKNTVYLEMYSLKPEDTAVYYCAALLKQRSTSYGYWGQGSQVTVSS | high polyreactivity
25 | QVQLVESGGGLVQAGGSLRLSCAASGRIFPWYTMGWYRQAPGKESELVATIRGSGGSTHYADSVKGRFTISRDNAKNTVYLQMNSLKPEDTAVYYCATDRPRYRYQYKFDYWGQGTQVTVSS | low polyreactivity
26 | QVQLVESGGGLVQAGGSLRLSCAASGFTFDKNVMGWYRQAPGKERELVAAISVRGGTTYYADSVKGRFTISRDNAMNTVYLQMNSLKPEDTAVYYCAARAYGPPARYDSWGQGTQVTVSS | low polyreactivity
27 | QDQLVESGGGLVQAGGSLRLSCAASGIIIVAYAMGWYRQAPGKERELVAAITVSGARTYYADSVKGRFTISRDNAKITVYFQMNSLKPEDTAVYYCAARYAGGGVLGHGYWGQGTQVTVSS | high polyreactivity
28 | QVQHVESGGGLVQAGRSLRLSCAASGILRRYAMGWYIQERGKERELVAAITRTGGRTYYADSVKGRFTISRDNAKNTVYLQMNSLKPEDTAVYYCATDRYVVSGMDYWGQGTQVTVSS | high polyreactivity
29 | QDQLVESGRGLVQAGGSLRLSCAASGNTFYRYTMGWYRQAPGNERELVDAISGRGGSTTYADSVKGRFTISRDPAKNTVYLQMKSLIPEDTAVYYCAAVTGGTAYYASTYYYWGQGTQVTVSL | high polyreactivity
30 | QVQHVESGGGLVQAGGSLRLSCAASGRTFAGYAMGWYRQAPGKEWELVSGITRGVITNYADSVKGRFTISRDNAKNTVYLQMNSLKPEDTAVYSCNARTFPVRLYTPRYGYWGQGTQVTVSS | high polyreactivity
31 | QVQLVESGGGLVHAGGSLPLSCAASGLTFGSNPMRTYRQAPVQERELVAAISGGTSTNYADSVKGRFTISRDNAKNTVYLQMNSMTPEDTAVYYCAAAKRTADYASYWYVENDYWGQGSQVTVSS | low polyreactivity
32 | QVQLVESGGGLVQAGGSLRLSCAASGGIFGHNAMGWYRQAPGKERELVAAISYTGGSTYYADSVKGRFTISRDNAKNTVNLQMNSLKPEDTAVYYCNAVQRRFRYPFDYWGQGTQVTVSS | low polyreactivity
